According to patent publication JP2018127443A:

Molecular target: T1, 変性rFXIII-A (human) (UniProt P00488)
T1 sequence: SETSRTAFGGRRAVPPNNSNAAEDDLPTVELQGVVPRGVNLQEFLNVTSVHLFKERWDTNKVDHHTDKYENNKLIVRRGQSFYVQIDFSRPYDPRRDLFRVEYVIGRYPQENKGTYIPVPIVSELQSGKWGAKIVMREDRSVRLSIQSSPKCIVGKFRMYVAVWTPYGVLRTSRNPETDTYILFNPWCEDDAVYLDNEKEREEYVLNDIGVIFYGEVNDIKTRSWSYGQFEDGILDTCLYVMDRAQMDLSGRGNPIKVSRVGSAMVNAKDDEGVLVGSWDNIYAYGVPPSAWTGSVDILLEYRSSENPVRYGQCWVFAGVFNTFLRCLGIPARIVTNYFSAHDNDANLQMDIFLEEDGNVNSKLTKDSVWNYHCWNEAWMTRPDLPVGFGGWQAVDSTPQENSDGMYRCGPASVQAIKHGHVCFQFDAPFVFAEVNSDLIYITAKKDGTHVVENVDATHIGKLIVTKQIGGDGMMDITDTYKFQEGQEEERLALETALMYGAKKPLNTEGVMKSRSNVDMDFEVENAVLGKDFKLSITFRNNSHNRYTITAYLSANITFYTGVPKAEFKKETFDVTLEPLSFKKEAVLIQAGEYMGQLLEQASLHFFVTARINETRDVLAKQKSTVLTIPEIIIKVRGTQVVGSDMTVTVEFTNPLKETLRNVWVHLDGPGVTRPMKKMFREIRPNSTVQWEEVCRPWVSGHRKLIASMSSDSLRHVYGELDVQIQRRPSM
Test: solid-phase ELISA: denatured vs native rFXIII-A coated

- fold change of binding, denatured against native rFXIII-A: 2 fold
B1: ヒト抗FXIII-Aモノクローナル抗体 A75K (antibody, V domains shown)
VH: QVQLVESGGGVVQPGRSLSLSCAASGFNFISYGMHWVRQSPGKGLEWVAVISYDGSKKYYADFVKGRFTISRDNSKNTLFLQMNSLRGDDTAVFYCAKDRGFYGSGSSDYYYVMDVWGQGTTVTVSS
VL: DIQMTQSPSSLSASVGDRVTITCRASQGITNYLAWFQHKPGKAPKSLIYAASTLHRGVSSKFSGSGSGTDFTLTISNLQPEDFATYYCQQYKTYPITFGQGTRLDIK
